Assay results as given in publication PMC7865074, “Role of PDZ-binding motif from West Nile virus NS5 protein on viral replication” (Scientific Reports, 2021).
Ends that are not written are not given here.

T1: biotinylated WNV NS5 PBM peptide (West Nile virus, also: biotinyl group, end not given here)
T1 construct: bait of the holdup assay; also called 13-mer peptide; source: synthetic peptide (solid phase, Fmoc; Proteogenix)
T1 peptide: RYEDTTLVEDTVL


Biological target: T1, biotinylated WNV NS5 PBM peptide
Assay: holdup assay (automated high-throughput chromatography); biotinylated NS5 PBM peptide as bait against 259 human PDZ domains expressed in E. coli; read-out binding intensity (BI), mean of replicates; BI threshold 0.2 for a significant interaction

Binder | BI (holdup binding intensity)
Rho GTPase-activating protein 21, PDZ domain (holdup construct) (domain or fragment, human, UniProt Q5T5U3 50-159, looked up, also called ARHGAP21; source: E. coli, PDZome V.2 library, high-throughput expression) TVTLKRTSQGFGFTLRHFIVYPPESAIQFSYKDEENGNRGGKQRNRLEPMDTIFVKQVKEGGPAFEAGLCTGDRIIKVNGESVIGKTYSQVIALIQNSDTTLELSVMPKD | 0.3
Protein scribble homolog, PDZ domain 3 (holdup construct) (domain or fragment, human, UniProt Q14160 1004-1093, looked up, also called SCRIB_3; source: E. coli, PDZome V.2 library, high-throughput expression) EIRLPRAGGPLGLSIVGGSDHSSHPFGVQEPGVFISKVLPRGLAARSGLRVGDRILAVNGQDVRDATHQEAVSALLRPCLELSLLVRRDP | 0.33
Protein scribble homolog, PDZ domain 1 (holdup construct) (domain or fragment, also called SCRIB_1; source: E. coli, PDZome V.2 library, high-throughput expression) not shown | 0.27
Microtubule-associated serine/threonine-protein kinase 1, PDZ domain (holdup construct) (domain or fragment, human, UniProt Q9Y2H9 967-1055, looked up, also called MAST1; source: E. coli, PDZome V.2 library, high-throughput expression) PITIQRSGKKYGFTLRAIRVYMGDTDVYSVHHIVWHVEEGGPAQEAGLCAGDLITHVNGEPVHGMVHPEVVELILKSGNKVAVTTTPFE | 0.52
Beta-1-syntrophin, PDZ domain (holdup construct) (domain or fragment, human, UniProt Q13884 112-195, looked up, also called SNTB1; source: E. coli, PDZome V.2 library, high-throughput expression) GVKVLKQELGGLGISIKGGKENKMPILISKIFKGLAADQTQALYVGDAILSVNGADLRDATHDEAVQALKRAGKEVLLEVKYMR | 0.22
Disks large homolog 4, PDZ domain 3 (holdup construct) (domain or fragment, human, UniProt P78352 313-393, looked up, also called DLG4_3; source: E. coli, PDZome V.2 library, high-throughput expression) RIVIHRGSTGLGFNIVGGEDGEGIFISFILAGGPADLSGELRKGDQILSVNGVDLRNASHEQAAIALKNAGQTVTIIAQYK | 0.24
Membrane-associated guanylate kinase, WW and PDZ domain-containing protein 1, PDZ domain 2 (holdup construct) (domain or fragment, human, UniProt Q96QZ7 472-554, looked up, also called MAGI1_2; source: E. coli, PDZome V.2 library, high-throughput expression) HTKLRKSSRGFGFTVVGGDEPDEFLQIKSLVLDGPAALDGKMETGDVIVSVNDTCVLGHTHAQVVKIFQSIPIGASVDLELCR | 0.55
Membrane-associated guanylate kinase, WW and PDZ domain-containing protein 2, PDZ domain 2 (holdup construct) (domain or fragment, human, UniProt Q86UL8 426-510, looked up, also called MAGI2_2; source: E. coli, PDZome V.2 library, high-throughput expression) STTLKKSNMGFGFTIIGGDEPDEFLQVKSVIPDGPAAQDGKMETGDVIVYINEVCVLGHTHADVVKLFQSVPIGQSVNLVLCRGY | 0.38
Regulating synaptic membrane exocytosis protein 2, PDZ domain (holdup construct) (domain or fragment, human, UniProt Q9UQ26 668-754, looked up, also called RIMS2; source: E. coli, PDZome V.2 library, high-throughput expression) DGSVPRDSGAMLGLKVVGGKMTESGRLCAFITKVKKGSLADTVGHLRPGDEVLEWNGRLLQGATFEEVYNIILESKPEPQVELVVSR | < 0.15
Na(+)/H(+) exchange regulatory cofactor NHE-RF2, PDZ domain 1 (holdup construct) (domain or fragment, human, UniProt Q15599 11-90, looked up, also called NHERF2_1; source: E. coli, PDZome V.2 library, high-throughput expression) LCRLVRGEQGYGFHLHGEKGRRGQFIRRVEPGSPAEAAALRAGDRLVEVNGVNVEGETHHQVVQRIKAVEGQTRLLVVDQ | 0.21
Connector enhancer of kinase suppressor of ras 3, PDZ domain (holdup construct) (domain or fragment, human, UniProt Q6P9H4 211-293, looked up, also called CNKSR3; source: E. coli, PDZome V.2 library, high-throughput expression) EVHLPNIKPGEGLGMYIKSTYDGLHVITGTTENSPADRSQKIHAGDEVIQVNQQTVVGWQLKNLVKKLRENPTGVVLLLKKRP | < 0.15
FERM and PDZ domain-containing protein 4, PDZ domain (holdup construct) (domain or fragment, human, UniProt Q14CM0 78-155, looked up, also called FRMPD4; source: E. coli, PDZome V.2 library, high-throughput expression) KVEMRRDPVLGFGFVAGSEKPVVVRSVTPGGPSEGKLIPGDQIVMINDEPVSAAPRERVIDLVRSCKESILLTVIQPY | 0.32
SH3 and multiple ankyrin repeat domains protein 2, PDZ domain (holdup construct) (domain or fragment, human, UniProt Q9UPX8 626-720, looked up, also called SHANK2; source: E. coli, PDZome V.2 library, high-throughput expression) TVVLQKKDNEGFGFVLRGAKADTPIEEFTPTPAFPALQYLESVDEGGVAWQAGLRTGDFLIEVNNENVVKVGHRQVVNMIRQGGNHLVLKVVTVT | 0.39
Synaptojanin-2-binding protein, PDZ domain (holdup construct) (domain or fragment, human, UniProt P57105 13-100, looked up, also called SYNJ2BP; source: E. coli, PDZome V.2 library, high-throughput expression) EINLTRGPSGLGFNIVGGTDQQYVSNDSGIYVSRIKENGAAALDGRLQEGDKILSVNGQDLKNLLHQDAVDLFRNAGYAVSLRVQHRL | 0.21
PDZ domain-containing RING finger protein 3, PDZ domain 1 (holdup construct) (domain or fragment, human, UniProt Q9UPQ7 249-339, looked up, also called PDZRN3_1; source: E. coli, PDZome V.2 library, high-throughput expression) TLVLHRDSGSLGFNIIGGRPSVDNHDGSSSEGIFVSKIVDSGPAAKEGGLQIHDRIIEVNGRDLSRATHDQAVEAFKTAKEPIVVQVLRRT | 0.35
Na(+)/H(+) exchange regulatory cofactor NHE-RF2, PDZ domain 2 (holdup construct) (domain or fragment, human, UniProt Q15599 150-230, looked up, also called NHERF2_2; source: E. coli, PDZome V.2 library, high-throughput expression) RLCHLRKGPQGYGFNLHSDKSRPGQYIRSVDPGSPAARSGLRAQDRLIEVNGQNVEGLRHAEVVASIKAREDEARLLVVDP | 0.74
Rho guanine nucleotide exchange factor 12, PDZ domain (holdup construct) (domain or fragment, human, UniProt Q9NZN5 72-151, looked up, also called ARHGEF12; source: E. coli, PDZome V.2 library, high-throughput expression) CVIIQKDDNGFGLTVSGDNPVFVQSVKEDGAAMRAGVQTGDRIIKVNGTLVTHSNHLEVVKLIKSGSYVALTVQGRPPGS | 0.25
